In patent US20240261333A1 (published 2024):
One block for each binder: values may come before it.

How the values were obtained:
[1] = target: T1, NAP1L1 (human, UniProt P55209 2-388); experiment: co-IP with anti-FLAG, N-FLAG B3GNT2, mass spectrometry
T1 construct: also called NP_001294853.1 (+1)
T1 sequence (looked up): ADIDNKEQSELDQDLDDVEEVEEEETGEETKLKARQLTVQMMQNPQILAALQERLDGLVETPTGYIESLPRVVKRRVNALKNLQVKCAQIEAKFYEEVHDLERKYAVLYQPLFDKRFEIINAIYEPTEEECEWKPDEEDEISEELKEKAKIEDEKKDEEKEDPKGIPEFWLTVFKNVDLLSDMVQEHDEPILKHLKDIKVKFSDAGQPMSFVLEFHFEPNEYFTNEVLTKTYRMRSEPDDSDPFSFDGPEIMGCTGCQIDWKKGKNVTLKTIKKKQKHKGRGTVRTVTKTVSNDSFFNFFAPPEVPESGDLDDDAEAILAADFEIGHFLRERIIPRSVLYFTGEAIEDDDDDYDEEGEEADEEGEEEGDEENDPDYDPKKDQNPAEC
Protocol: (§1) Cells were plated in 10-cm cell culture dishes and grown to 60-80% confluency. For each condition, two biological replicates were harvested for co-IP. Cells were washed with PBS and 4 mL of lysis buffer (20 mM HEPES, 1% Triton X-100, 150 mM NaCl, 1 mM EDTA, and 10% glycerol) containing protease inhibitor cocktail was added. Cells were scraped and lysate was incubated at 4° C. under rotary agitation for 1 h. Lysate was centrifuged at 14,000×g for 10 min at 4° C. Supernatant was transferred to a new tube and an aliquot was taken as the input. […] For Western blots, 10 μg/mL Chicken Anti-FLAG (Aves labs ET-DY100) and IgY control (R&D Systems AB-101-C) antibodies were biotinylated (Thermo Fisher Scientific 90407) and added to the respective conditions. Lysates with antibodies were incubated at 4° C. under rotary agitation overnight. For each mL of lysate, 50 μL of Pierce Protein A/G Magnetic Beads (Mass spectrometry; Thermo Fisher Scientific 88803) or Pierce Streptavidin Magnetic Beads (Western blot; Thermo Fisher Scientific 88817) was washed twice with lysis buffer. Lysates with antibodies were added to the beads and incubated at 4° C. under rotary agitation for 4 h. Beads were washed with lysis buffer 3 times and resuspended in lysis buffer for storage.
(§2) Magnetic beads were resuspended in 100 mM Tris pH 7.8, reduced, alkylated and digested with trypsin at 37° ° C. overnight. This solution was subjected to solid phase extraction to concentrate the peptides and remove unwanted reagents followed by injection onto a Shimadzu HPLC with fraction collector. Eight fractions were collected and after concentration were injected on a Waters NanoAcquity HPLC equipped with a self-packed Aeris 3 μm C18 analytical column 0.075 mm by 20 cm, (Phenomenex). Peptides were eluted using standard reverse-phase gradients. The effluent from the column was analyzed using a Thermo Orbitrap Elite mass spectrometer (nanospray configuration) operated in a data dependent manner for 54 minutes. The resulting fragmentation spectra were correlated against the known database using Proteome Discover 1.4 (Thermo Fisher Scientific).

[2] = target: T2, CAPRIN1 (human, UniProt Q14444 2-709); experiment: co-IP with mouse anti-FLAG from lysate of cells overexpressing N-FLAG B3GNT2, then mass spectrometry
T2 construct: Identified by mass spectrometry in the co-IP; also called NP_005889.3 (+1)
T2 sequence (looked up): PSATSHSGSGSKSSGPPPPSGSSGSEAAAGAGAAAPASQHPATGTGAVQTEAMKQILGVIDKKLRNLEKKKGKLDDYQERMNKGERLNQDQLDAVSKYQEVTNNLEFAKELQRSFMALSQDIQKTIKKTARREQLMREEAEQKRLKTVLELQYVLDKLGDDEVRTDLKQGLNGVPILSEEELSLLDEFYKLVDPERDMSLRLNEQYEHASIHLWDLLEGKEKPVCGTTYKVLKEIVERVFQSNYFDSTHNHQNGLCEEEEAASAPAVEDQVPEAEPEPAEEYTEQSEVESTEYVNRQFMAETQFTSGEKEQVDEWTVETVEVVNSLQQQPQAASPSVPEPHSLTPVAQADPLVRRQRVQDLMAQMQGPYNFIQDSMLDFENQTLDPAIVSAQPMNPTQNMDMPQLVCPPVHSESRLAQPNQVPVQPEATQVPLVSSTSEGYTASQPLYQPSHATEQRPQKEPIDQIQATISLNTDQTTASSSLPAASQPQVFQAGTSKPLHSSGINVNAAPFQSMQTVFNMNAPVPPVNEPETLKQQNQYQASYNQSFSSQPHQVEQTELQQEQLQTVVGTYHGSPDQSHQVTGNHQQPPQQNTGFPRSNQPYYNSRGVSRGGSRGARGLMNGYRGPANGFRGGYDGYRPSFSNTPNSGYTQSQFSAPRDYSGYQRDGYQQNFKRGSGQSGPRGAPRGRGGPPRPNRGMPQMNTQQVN
Protocol: as §1, §2

[3] = target: T3, SRP14 (human, UniProt P37108 2-136); experiment: as above
T3 construct: Identified by mass spectrometry in the co-IP; also called NP_003125.3
T3 sequence (looked up): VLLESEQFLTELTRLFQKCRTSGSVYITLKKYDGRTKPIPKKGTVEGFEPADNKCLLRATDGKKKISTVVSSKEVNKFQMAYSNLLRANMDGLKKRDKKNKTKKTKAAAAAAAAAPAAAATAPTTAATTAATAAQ
Protocol: as §1, §2

[4] = target: T4, TIMP3 (human, UniProt P35625 24-211); experiment: as above
T4 construct: Identified by mass spectrometry in the co-IP; also called NP_000353.1
T4 sequence (looked up): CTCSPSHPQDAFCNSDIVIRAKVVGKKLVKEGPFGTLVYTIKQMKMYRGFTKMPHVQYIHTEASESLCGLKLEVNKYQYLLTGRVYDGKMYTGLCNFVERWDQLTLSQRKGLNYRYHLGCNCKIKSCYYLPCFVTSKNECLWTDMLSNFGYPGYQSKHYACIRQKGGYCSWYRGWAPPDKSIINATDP
Protocol: as §1, §2

[5] = target: T5, TCP1 (human, UniProt P17987 1-556); experiment: as above
T5 construct: Identified by mass spectrometry in the co-IP; also called NP_110379.2
Protocol: as §1, §2

[6] = target: T6, PABPC1 (human, UniProt P11940 1-636); experiment: as above
T6 construct: Identified by mass spectrometry in the co-IP; also called NP_002559.2
Protocol: as §1, §2

[7] = target: T7, ANXA2 (human, UniProt P07355-2 1-357, limits assumed); experiment: as above
T7 construct: Identified by mass spectrometry in the co-IP; also called NP_001002858.1 (+1)
Protocol: as §1, §2

T6 sequence (P11940 whole entry): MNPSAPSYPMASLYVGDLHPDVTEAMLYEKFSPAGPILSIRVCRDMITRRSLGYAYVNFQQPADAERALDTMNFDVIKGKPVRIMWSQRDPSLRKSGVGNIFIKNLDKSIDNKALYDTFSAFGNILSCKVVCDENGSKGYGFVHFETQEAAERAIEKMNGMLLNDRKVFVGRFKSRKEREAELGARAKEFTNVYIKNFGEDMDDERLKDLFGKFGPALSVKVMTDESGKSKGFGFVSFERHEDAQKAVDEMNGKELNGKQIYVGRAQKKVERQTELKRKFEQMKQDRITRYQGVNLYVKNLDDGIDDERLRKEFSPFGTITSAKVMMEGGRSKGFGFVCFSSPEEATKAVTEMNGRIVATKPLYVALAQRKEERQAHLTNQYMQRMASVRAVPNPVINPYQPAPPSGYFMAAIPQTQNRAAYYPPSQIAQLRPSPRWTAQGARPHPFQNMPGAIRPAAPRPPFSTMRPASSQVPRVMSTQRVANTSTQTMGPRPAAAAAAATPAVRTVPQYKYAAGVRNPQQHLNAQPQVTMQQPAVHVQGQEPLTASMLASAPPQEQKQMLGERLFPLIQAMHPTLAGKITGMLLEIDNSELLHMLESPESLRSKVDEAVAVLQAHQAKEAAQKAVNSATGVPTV
T7 sequence (P07355 other isoform, or with tags, fused parts or gaps limits assumed): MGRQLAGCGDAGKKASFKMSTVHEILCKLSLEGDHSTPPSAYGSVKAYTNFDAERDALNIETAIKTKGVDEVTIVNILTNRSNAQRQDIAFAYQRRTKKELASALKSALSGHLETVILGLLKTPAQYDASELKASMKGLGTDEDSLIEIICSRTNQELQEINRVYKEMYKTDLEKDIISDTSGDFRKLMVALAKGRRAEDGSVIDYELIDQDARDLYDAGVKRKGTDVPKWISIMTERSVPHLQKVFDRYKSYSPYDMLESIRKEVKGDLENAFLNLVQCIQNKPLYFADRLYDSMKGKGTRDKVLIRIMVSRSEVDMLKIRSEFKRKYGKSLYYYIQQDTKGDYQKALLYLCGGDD
T5 sequence (P17987 whole entry): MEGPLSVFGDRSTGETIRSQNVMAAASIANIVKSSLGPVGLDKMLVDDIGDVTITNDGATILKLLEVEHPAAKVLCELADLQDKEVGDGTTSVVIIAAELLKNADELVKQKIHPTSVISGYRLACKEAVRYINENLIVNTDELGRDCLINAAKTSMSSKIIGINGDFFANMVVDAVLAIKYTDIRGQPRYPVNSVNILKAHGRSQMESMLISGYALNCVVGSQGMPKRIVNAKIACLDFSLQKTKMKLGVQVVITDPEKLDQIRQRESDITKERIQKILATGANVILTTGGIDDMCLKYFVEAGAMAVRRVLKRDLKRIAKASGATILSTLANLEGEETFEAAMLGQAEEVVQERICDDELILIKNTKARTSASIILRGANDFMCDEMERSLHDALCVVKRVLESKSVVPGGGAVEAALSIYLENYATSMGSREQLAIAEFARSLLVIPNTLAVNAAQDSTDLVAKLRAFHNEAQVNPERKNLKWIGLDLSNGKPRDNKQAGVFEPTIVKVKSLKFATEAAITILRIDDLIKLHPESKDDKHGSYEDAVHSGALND

co-IP/MS count, N-term FLAG [1]: 0
B1: N-terminal FLAG tagged B3GNT2 (enzyme, human, UniProt Q9NY97 1-397, looked up)
chain: MSVGRRRIKLLGILMMANVFIYFIMEVSKSSSQEKNGKGEVIIPKEKFWKISTPPEAYWNREQEKLNRQYNPILSMLTNQTGEAGRLSNISHLNYCEPDLRVTSVVTGFNNLPDRFKDFLLYLRCRNYSLLIDQPDKCAKKPFLLLAIKSLTPHFARRQAIRESWGQESNAGNQTVVRVFLLGQTPPEDNHPDLSDMLKFESEKHQDILMWNYRDTFFNLSLKEVLFLRWVSTSCPDTEFVFKGDDDVFVNTHHILNYLNSLSKTKAKDLFIGDVIHNAGPHRDKKLKYYIPEVVYSGLYPPYAGGGGFLYSGHLALRLYHITDQVHLYPIDDVYTGMCLQKLGLVPEKHKGFRTFDIEEKNKNNICSYVDLMLVHSRKPQEMIDIWSQLQSAHLKC
notes: FLAG-tagged ORF overexpressed in A375 cells; pulled down from the lysate with mouse anti-FLAG; also called N-FLAG B3GNT2; N-term FLAG; not shown: N-terminal FLAG tag

co-IP mass spectrometry count (N-term FLAG) [2]: 7
co-IP mass spectrometry count (N-term FLAG) [3]: 0
co-IP mass spectrometry count (N-term FLAG) [4]: 0
co-IP mass spectrometry count (N-term FLAG) [5]: 0
co-IP mass spectrometry count (N-term FLAG) [6]: 31
co-IP mass spectrometry count (N-term FLAG) [7]: 17
B2: N-terminal FLAG tagged B3GNT2 (enzyme, human, UniProt Q9NY97 1-397, looked up)
chain: B1 chain
notes: FLAG-tagged ORF overexpressed in A375 cells; bait of the co-IP with mouse anti-FLAG; also called N-FLAG B3GNT2; N-term FLAG; not shown: N-terminal FLAG tag
